Source: US10808017B2, “Ubiquitin variants and uses therof as 53BP1 inhibitors” (The Governing Council of the University of Toronto, priority 2016, dated 2020)

Legend:
[1] = biological target: T1, FMR1 (Homo sapiens, UniProt Q06787); assay: Flag IP-MS of i53/i53-DM baits: prey FMR1; assay type: binding; details: 293T Flp-In/T-Rex extracts, LC-MS/MS, one column per replicate IP
T1 construct: endogenous in cells; host or cells: HEK293 Flp-In/T-REx cells
Experimental: (§1) Following immunoprecipitation of Flag-tagged i53 and i-53-DM from HEK293 Flp-In/T-REx cells, peptides were identified using LC-MS/MS. Proteins were digested in solution with trypsin (Sigma, T7575-1KT) and dried to completeness. For LC-MS/MS analysis, peptides were reconstituted in 5% formic acid and loaded onto a 12-15 cm fused silica column with pulled tip packed in-house with 3.5 μm Zorbax C18 (Agilent Technologies, Calif., USA).
(§2) i53 and i53-DM precipitates were analyzed using an LTQ (Thermo Scientific) coupled to an Agilent 1100 Series HPLC (Agilent Technologies). Peptides were eluted from the column using a 90 min period cycle with a linear gradient from 0% to 40% ACN in 0.1% formic acid. Tandem MS spectra were acquired in a data-dependent mode for the top 5 (LTQ) most abundant ions using collision-induced dissociation. Acquired spectra were searched against the human Refseq_V53 database using Mascot (Matrix Science).
(§3) 293T Flp-In/T-Rex cell lines were generated that expressed Flag-tagged i53 or i53-DM under the control of a tetracycline-inducible promoter as previously described. Nine IP-MS experiments were analyzed (3 biological replicate IPs each for control i53- and i53-DM expressing cell lines). The interacting proteins were identified by MASCOT to identify high-confidence interactors for i53. […]

[2] = biological target: T2, VPS13C (Homo sapiens, UniProt Q709C8); assay: Flag IP-MS of i53/i53-DM baits: prey VPS13C; assay type: binding; details: 293T Flp-In/T-Rex extracts, LC-MS/MS, one column per replicate IP
T2 construct: endogenous in cells; host or cells: HEK293 Flp-In/T-REx cells
Experimental: as §1, §2, §3

[3] = biological target: T3, RPS29 (Homo sapiens, UniProt P62273); assay: Flag IP-MS of i53/i53-DM baits: prey RPS29; assay type: binding; details: 293T Flp-In/T-Rex extracts, LC-MS/MS, one column per replicate IP
T3 construct: Following immunoprecipitation of Flag-tagged i53 and i-53-DM from HEK293 Flp-In/T-REx cells, peptides were identified using LC-MS/MS; endogenous in cells; host or cells: HEK293 Flp-In/T-REx cells
Experimental: as §1, §2, §3

[4] = biological target: T4, TRIOBP (Homo sapiens, UniProt Q9H2D6); assay: Flag IP-MS of i53/i53-DM baits: prey TRIOBP; assay type: binding; details: 293T Flp-In/T-Rex extracts, LC-MS/MS, one column per replicate IP
T4 construct: endogenous in cells; host or cells: HEK293 Flp-In/T-REx
T4 sequence (Q9H2D6 whole entry): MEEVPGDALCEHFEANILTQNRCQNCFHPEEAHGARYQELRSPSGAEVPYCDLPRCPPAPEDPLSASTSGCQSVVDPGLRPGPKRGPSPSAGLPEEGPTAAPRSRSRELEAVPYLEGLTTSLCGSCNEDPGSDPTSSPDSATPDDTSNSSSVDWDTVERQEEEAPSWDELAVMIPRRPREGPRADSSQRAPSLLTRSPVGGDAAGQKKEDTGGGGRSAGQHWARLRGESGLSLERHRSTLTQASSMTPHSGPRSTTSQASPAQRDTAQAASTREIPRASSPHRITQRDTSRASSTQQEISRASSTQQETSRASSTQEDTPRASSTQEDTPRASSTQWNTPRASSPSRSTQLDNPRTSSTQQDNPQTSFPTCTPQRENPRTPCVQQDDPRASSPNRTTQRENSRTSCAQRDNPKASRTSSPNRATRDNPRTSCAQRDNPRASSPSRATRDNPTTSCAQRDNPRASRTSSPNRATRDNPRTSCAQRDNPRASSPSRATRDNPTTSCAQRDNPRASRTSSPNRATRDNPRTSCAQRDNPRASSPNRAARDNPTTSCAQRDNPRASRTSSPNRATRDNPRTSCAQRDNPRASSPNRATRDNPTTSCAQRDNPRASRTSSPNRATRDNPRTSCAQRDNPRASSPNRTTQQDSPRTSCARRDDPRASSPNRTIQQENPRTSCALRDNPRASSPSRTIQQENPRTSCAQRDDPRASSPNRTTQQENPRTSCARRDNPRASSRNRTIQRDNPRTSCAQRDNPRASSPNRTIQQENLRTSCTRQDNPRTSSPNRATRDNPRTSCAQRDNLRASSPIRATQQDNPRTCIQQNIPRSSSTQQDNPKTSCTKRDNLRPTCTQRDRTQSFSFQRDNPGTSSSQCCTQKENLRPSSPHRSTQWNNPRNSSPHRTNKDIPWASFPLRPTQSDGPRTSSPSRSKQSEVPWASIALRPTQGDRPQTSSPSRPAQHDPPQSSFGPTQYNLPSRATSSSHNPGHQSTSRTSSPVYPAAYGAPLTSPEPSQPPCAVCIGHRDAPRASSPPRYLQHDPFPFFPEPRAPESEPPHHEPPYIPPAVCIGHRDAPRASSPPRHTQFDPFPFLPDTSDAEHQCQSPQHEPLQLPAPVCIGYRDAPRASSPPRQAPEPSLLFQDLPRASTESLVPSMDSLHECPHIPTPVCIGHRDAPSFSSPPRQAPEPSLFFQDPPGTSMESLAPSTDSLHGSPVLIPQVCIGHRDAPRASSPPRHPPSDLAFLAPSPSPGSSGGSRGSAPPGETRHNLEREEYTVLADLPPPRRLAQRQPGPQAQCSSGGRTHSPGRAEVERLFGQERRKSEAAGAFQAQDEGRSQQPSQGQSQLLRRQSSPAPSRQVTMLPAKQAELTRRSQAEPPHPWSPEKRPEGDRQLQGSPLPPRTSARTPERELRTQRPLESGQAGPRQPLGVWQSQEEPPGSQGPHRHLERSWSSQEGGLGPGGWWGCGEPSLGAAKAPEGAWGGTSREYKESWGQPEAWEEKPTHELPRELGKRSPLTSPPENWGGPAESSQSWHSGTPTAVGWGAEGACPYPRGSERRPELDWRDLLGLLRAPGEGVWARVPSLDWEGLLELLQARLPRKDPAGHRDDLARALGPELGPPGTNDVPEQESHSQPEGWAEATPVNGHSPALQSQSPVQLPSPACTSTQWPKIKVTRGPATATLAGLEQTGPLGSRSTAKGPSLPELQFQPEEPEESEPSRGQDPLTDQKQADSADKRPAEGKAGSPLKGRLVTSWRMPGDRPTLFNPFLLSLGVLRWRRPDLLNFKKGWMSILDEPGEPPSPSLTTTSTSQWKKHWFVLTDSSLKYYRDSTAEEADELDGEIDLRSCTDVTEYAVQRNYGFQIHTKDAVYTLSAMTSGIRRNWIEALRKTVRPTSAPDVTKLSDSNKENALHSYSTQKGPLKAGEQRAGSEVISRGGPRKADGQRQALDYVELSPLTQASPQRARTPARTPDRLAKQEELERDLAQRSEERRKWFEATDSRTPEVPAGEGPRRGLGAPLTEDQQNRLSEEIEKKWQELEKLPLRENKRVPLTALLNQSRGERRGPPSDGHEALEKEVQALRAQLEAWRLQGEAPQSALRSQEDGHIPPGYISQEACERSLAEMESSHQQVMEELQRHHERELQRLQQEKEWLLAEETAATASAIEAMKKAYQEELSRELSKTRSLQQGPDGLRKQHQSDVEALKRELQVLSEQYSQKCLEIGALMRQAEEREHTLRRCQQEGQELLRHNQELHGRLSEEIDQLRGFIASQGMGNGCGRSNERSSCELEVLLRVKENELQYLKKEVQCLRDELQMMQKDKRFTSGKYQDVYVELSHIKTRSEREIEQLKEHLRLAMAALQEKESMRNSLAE
Experimental: as §1, §2, §3

[5] = tested on: RAB34; assay: Flag IP-MS of i53/i53-DM baits: prey RAB34; assay type: binding, human; details: 293T Flp-In/T-Rex extracts, LC-MS/MS, one column per replicate IP
Experimental: as §1, §2, §3

[6] = biological target: T5, RPL24 (Homo sapiens, UniProt P83731); assay: Flag IP-MS of i53/i53-DM baits: prey RPL24; assay type: binding; details: 293T Flp-In/T-Rex extracts, LC-MS/MS, one column per replicate IP
T5 construct: endogenous in cells; host or cells: HEK293 Flp-In/T-REx
Experimental: as §1, §2, §3

[7] = biological target: T6, DLEC1 (Homo sapiens, UniProt Q9Y238); assay: Flag IP-MS of i53/i53-DM baits: prey DLEC1; assay type: binding; details: 293T Flp-In/T-Rex extracts, LC-MS/MS, one column per replicate IP
T6 construct: endogenous in cells; host or cells: HEK293 Flp-In/T-REx cells
T6 sequence (Q9Y238 whole entry): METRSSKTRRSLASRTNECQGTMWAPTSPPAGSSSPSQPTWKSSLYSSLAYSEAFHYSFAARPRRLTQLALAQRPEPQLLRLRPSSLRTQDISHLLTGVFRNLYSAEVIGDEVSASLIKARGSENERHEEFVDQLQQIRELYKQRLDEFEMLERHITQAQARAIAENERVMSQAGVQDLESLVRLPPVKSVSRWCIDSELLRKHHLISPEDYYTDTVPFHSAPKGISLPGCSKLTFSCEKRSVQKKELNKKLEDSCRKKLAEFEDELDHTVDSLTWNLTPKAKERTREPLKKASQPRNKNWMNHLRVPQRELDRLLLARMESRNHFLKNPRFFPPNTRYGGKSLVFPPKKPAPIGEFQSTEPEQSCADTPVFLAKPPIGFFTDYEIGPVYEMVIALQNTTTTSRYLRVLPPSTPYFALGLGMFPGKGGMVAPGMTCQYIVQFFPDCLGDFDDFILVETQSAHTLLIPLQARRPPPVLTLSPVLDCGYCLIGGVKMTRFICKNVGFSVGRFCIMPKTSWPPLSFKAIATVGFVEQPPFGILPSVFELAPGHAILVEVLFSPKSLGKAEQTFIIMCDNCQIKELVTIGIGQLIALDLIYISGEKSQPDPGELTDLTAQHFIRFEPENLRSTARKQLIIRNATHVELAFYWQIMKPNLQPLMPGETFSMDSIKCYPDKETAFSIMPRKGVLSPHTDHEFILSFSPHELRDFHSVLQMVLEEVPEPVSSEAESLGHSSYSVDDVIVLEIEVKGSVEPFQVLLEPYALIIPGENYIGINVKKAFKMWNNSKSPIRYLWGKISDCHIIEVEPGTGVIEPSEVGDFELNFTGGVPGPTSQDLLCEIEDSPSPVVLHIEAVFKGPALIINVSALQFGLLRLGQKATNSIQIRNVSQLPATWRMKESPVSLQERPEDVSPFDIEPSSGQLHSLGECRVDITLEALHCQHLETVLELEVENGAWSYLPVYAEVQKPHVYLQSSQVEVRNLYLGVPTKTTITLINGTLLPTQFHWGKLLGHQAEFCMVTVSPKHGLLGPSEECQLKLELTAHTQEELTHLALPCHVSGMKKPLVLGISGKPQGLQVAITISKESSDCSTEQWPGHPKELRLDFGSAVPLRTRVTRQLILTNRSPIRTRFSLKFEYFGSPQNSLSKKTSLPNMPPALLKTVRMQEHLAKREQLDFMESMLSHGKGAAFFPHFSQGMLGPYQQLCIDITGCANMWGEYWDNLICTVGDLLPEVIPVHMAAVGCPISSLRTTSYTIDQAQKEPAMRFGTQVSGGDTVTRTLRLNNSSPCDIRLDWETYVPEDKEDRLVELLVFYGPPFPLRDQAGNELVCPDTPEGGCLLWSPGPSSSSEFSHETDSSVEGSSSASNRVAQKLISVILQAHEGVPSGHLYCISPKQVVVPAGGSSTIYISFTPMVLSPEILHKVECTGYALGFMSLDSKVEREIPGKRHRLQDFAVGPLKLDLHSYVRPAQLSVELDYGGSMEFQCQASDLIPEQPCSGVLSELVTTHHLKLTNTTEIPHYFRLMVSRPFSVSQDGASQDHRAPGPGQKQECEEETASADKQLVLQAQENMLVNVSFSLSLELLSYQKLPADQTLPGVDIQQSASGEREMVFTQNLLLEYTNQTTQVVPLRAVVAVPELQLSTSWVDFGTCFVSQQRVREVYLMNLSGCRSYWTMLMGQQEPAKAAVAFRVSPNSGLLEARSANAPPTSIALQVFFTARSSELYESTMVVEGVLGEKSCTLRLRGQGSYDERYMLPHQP
Experimental: as §1, §2, §3

[8] = tested on: MMEJ in U2OS EJ2-GFP cells; assay: EJ2-GFP reporter assay for MMEJ; assay type: cell-based; details: GFP-positive cells 48 h post-transfection, N=4
Experimental: FIG. 8 (Related to FIG. 3.) FIG. 8A, Immunoblots of whole cell lysates prepared from U2OS DR-GFP cells transfected with vectors expressing Flag-tagged i53, its DM mutant or an empty vector along with an I-SceI expression vector and probed with the indicated antibodies. FIG. 8B, U2OS DR-GFP cells were transfected with the vectors expressing Flag-tagged i53 or the DM mutant along with an I-SceI expression vector. Cells were treated either with DMSO (−) or 1 μM SCR7 (+). The percentage of GFP-positive cells was determined 48 h post-transfection for each condition and was normalized to the DM condition (mean±s.d., N=4). FIG. 8C, Control immunoblot of the experiment shown in (b). FIG. 8D, Immunoblots of whole cell lysates prepared from U2OS DR-GFP cells transfected with the indicated siRNAs along with an I-Scel expression vector and probed with the indicated antibodies. […] The percentage of GFP-positive cells was determined 48 h post-transfection for each condition and was normalized to the empty vector condition (mean±s.d., N=4). […]
The direct repeat (DR)-GFP assay to measure the frequency of HR and the strand annealing EJ2-GFP assay to measure the frequency of MMEJ were performed as previously described. […] 48 h post-plasmid transfection, the cells were trypsinized and the percentage of GFP-expressing cells was analyzed using the BD FACSCalibur flow cytometer.

[9] = biological target: T7, CFL1 (Homo sapiens, UniProt P23528); assay: Flag IP-MS of i53/i53-DM baits: prey CFL1; assay type: binding; details: 293T Flp-In/T-Rex extracts, LC-MS/MS, one column per replicate IP
T7 construct: endogenous in cells; host or cells: HEK293 Flp-In/T-REx
T7 sequence (P23528 whole entry): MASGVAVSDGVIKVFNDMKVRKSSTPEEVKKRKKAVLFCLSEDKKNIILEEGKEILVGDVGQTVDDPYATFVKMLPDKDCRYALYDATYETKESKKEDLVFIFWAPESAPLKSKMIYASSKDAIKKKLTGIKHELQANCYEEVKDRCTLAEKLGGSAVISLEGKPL
Experimental: as §1, §2, §3

[10] = biological target: T8, 53BP1 recruitment to DSB sites in U2OS cells (Homo sapiens, UniProt Q12888); assay: Ionizing radiation focus formation, 53BP1 (immunofluorescence); assay type: cell-based; details: transfected U2OS cells, 10 Gy X-rays, 1 h post-irradiation
T8 construct: endogenous in cells; host or cells: U2OS
Experimental: FIG. 3. The i53 protein inhibits 53BP1. FIG. 3A-B, U2OS cells were transfected with vectors expressing i53, its 53BP1-binding deficient mutant (DM) or an empty vector (EV) control. Cells were then X-irradiated with a 10 Gy dose and processed for immunofluorescence with the indicated antibodies 1 h post-irradiation (IR). DAPI staining (not shown) was used to delineate the outline (dashed lines) of the cell nuclei. The region in the magnified inset is indicated with a square. Quantitation of the experiment is shown in panel (a) and data is indicated as the mean±s.e.m (N=3), whereas in (b) representative micrographs are shown. Arrowheads indicate Flag-positive cells. FIG. 3C, Parental or 53BP1ΔU2OS cells transfected with vectors expressing i53, the DM mutant or an empty vector (EV) control were irradiated (10 Gy) 1 h before being processed for immunofluorescence. Cell cycle stage was assessed by Cyclin A staining. The data is presented as the mean±s.e.m.; N=3. FIG. 3D, Immunoprecipitation (IP) of Flag-tagged proteins from extracts prepared from 293T cells transfected with vectors expressing Flag-i53 or the i53-DM mutant. Proteins were separated by SDS-PAGE and immunoblotted (IB) for Flag and 53BP1. […]

## i53-DM: 53BP1-binding deficient mutant of i53 (P69L, L70V)
[1]
  Total peptides, FMR1: 6
[2]
  Total peptides, VPS13C: 5
[3]
  Total peptides, RPS29: 3
[4]
  Total peptides, TRIOBP: 3
[5]
  Total peptides, RAB34: 2
[6]
  Total peptides, RPL24: 5
[7]
  Total peptides, DLEC1: 2
[8]
  Increase in MMEJ over the empty vector: 1.3+/−0.1 fold

## i53: UbvG08 with C-terminal di-glycine removed and I44A mutation; genetically encoded inhibitor of 53BP1
[9]
  Total peptides, CFL1: 6
[6]
  Total peptides, RPL24: 5
[8]
  Increase in MMEJ over the empty vector: 1.4+/−0.15 fold
[10]
  53BP1 recruitment to DSB sites (ionizing radiation focus formation): strongly suppressed 53BP1 recruitment to DSB sites
